# Primed or numbered codes have the meaning given here. Where no end group is shown, it is not given here. [ ]: non-standard residue; d: D form. The star is where a group is joined. Pro(4-methylene) = C=C1CN[C@H](C(=O)O)C1; Pro(4,4-F2) = O=C(O)[C@@H]1CC(F)(F)CN1; Pro(4,4-Me2) = CC1(C)CN[C@H](C(=O)O)C1; Asu′ = aspartimide (aminosuccinimide); Hyp = O=C(O)[C@@H]1C[C@@H](O)CN1; dHyp = O=C(O)[C@H]1C[C@H](O)CN1; Aib = CC(C)(N)C(=O)O; OiPr = CC(C)O*
# Experiment: Evaluation of dissolution stability (content change on storage in dissolved state)
# Assay type: physicochemical
# Conditions: 1 mg/1 ml dissolved state, 40° C. and RH 75%
Substance,Day 1 content (%),Day 3 content (%),Day 7 content (%),Initial content (%)
"4,4-difluoro-Pro-Gly-Gln-Asp-Gly ([Pro(4,4-F2)]GQDG) [Example 43]",86.75,65.09,48.43,99.47
"4,4-difluoro-Pro-Gly-Gln-Asp-Gly-Leu ([Pro(4,4-F2)]GQDGL) [Example 48]",84.40,76.53,53.82,92.71
"4,4-difluoro-Pro-Gly-Gln-Asp-Gly-Leu-Ala ([Pro(4,4-F2)]GQDGLA) [Example 53]",87.14,76.02,62.88,94.88
"4,4-dimethyl Pro-Gly-Gln-Asp-Gly-Leu ([Pro(4,4-Me2)]GQDGL) [Example 56]",84.52,79.98,51.41,90.94
"4,4-dimethyl Pro-Gly-Gln-Asp-Gly-Leu-Ala ([Pro(4,4-Me2)]GQDGLA) [Example 57]",75.20,71.82,53.88,91.95
4-methylene-Pro-Gly-Gln-Asp-Gly-Leu ([Pro(4-methylene)]GQDGL) [Example 49],86.53,79.49,60.01,94.35
4-methylene-Pro-Gly-Gln-Asp-Gly-Leu-Ala ([Pro(4-methylene)]GQDGLA) [Example 54],83.66,73.59,62.48,95.42
Asu-Gly-Leu-Ala-Gly-Pro-Lys ([Asu′]GLAGPK) [Example 105],54.80,41.83,31.24,89.11
D Hyp-Gly-Gln-Asp-Gly-Leu ([dHyp]GQDGL) [Example 45],86.74,69.07,56.03,94.45
D Hyp-Gly-Gln-Asp-Gly-Leu-Ala ([dHyp]GQDGLA) [Example 50],89.44,80.15,56.11,96.67
DGLAGP [Example 31],85.08,78.24,60.99,91.42
DGLAGPK [Example 19],89.94,79.26,71.50,95.90
GLAGPK [Example 26],89.41,87.99,85.43,92.17
GQDGLA [Example 29],93.74,92.16,90.82,95.19
Gln-Asu-Gly-Leu-Ala-Gly (Q[Asu′]GLAG) [Example 118],92.71,85.67,79.33,96.15
Hyp-Ala-Gln-Asp-Gly ([Hyp]AQDG) [Example 73],89.07,82.64,75.49,92.11
Hyp-Gly-D Gln-Asp-Gly ([Hyp]G[dQ]DG) [Example 58],98.01,97.85,97.56,98.03

Substance,Day 1 content (%),Day 3 content (%),Day 7 content (%),Initial content (%)
Hyp-Gly-Gln-Aib-Gly-Leu ([Hyp]GQ[Aib]GL) [Example 84],97.91,97.29,96.49,97.78
Hyp-Gly-Gln-Ala-Gly ([Hyp]GQAG) [Example 13],98.39,98.04,97.64,98.51
Hyp-Gly-Gln-Ala-Gly-Leu ([Hyp]GQAGL) [Example 122],98.66,98.56,98.27,98.82
Hyp-Gly-Gln-Ala-Gly-Leu-Ala ([Hyp]GQAGLA) [Example 14],96.58,96.07,95.55,97.13
Hyp-Gly-Gln-Ala-Leu ([Hyp]GQAL) [Example 120],98.87,98.73,98.44,99.07
Hyp-Gly-Gln-Ala-Leu-Leu ([Hyp]GQALL) [Example 123],99.14,98.98,98.86,99.26
Hyp-Gly-Gln-Ala-Val ([Hyp]GQAV) [Example 119],96.33,96.18,95.89,96.39
Hyp-Gly-Gln-Ala-Val-Leu ([Hyp]GQAVL) [Example 124],99.22,99.11,98.97,99.40
Hyp-Gly-Gln-Asn-Gly-Leu ([Hyp]GQNGL) [Example 81],93.01,92.10,89.51,95.87
Hyp-Gly-Gln-Asn-Gly-Leu-Ala ([Hyp]GQNGLA) [Example 79],97.87,81.04,76.89,94.36
Hyp-Gly-Gln-Asp (isopropyl ester)-Gly ([Hyp]GQD(OiPr)G) [Example 115],88.57,82.00,71.64,92.71
Hyp-Gly-Gln-Asp (isopropyl ester)-Gly (isopropyl ester) [Example 110],85.18,72.44,91.84,98.00
Hyp-Gly-Gln-Asp (isopropyl ester)-Gly-Leu ([Hyp]GQD(OiPr)GL) [Example 116],85.82,84.31,83.50,88.64
Hyp-Gly-Gln-Asp (isopropyl ester)-Gly-Leu (isopropyl ester) [Example 112],92.78,86.07,80.91,95.34
Hyp-Gly-Gln-Asp (isopropyl ester)-Gly-Leu-Ala ([Hyp]GQD(OiPr)GLA) [Example 117],90.61,85.37,76.88,94.77
Hyp-Gly-Gln-Asp (isopropyl ester)-Gly-Leu-Ala (isopropyl ester) [Example 114],75.01,56.84,32.74,84.91

# From patent US12428446B2, “Peptide compound or pharmaceutically acceptable salt thereof” (Eyebio Korea, priority 2019, dated 2025)
